Results published in patent US20240287161A1 (NATIONAL UNIVERSITY CORPORATION TOTTORI UNIVERSITY, published 2024).

Key:
[1] = target: T1, HCoV-229E trimeric S protein (amino acids 12-1109) with T4 foldon, histidine tag and strep-tag (HCoV-229E, UniProt P15423 12-1112); experiment: ELISA on coated S-trimeric antigen, anti-human IgG-HRP [Human IgG1, NT-193]
T1 chain: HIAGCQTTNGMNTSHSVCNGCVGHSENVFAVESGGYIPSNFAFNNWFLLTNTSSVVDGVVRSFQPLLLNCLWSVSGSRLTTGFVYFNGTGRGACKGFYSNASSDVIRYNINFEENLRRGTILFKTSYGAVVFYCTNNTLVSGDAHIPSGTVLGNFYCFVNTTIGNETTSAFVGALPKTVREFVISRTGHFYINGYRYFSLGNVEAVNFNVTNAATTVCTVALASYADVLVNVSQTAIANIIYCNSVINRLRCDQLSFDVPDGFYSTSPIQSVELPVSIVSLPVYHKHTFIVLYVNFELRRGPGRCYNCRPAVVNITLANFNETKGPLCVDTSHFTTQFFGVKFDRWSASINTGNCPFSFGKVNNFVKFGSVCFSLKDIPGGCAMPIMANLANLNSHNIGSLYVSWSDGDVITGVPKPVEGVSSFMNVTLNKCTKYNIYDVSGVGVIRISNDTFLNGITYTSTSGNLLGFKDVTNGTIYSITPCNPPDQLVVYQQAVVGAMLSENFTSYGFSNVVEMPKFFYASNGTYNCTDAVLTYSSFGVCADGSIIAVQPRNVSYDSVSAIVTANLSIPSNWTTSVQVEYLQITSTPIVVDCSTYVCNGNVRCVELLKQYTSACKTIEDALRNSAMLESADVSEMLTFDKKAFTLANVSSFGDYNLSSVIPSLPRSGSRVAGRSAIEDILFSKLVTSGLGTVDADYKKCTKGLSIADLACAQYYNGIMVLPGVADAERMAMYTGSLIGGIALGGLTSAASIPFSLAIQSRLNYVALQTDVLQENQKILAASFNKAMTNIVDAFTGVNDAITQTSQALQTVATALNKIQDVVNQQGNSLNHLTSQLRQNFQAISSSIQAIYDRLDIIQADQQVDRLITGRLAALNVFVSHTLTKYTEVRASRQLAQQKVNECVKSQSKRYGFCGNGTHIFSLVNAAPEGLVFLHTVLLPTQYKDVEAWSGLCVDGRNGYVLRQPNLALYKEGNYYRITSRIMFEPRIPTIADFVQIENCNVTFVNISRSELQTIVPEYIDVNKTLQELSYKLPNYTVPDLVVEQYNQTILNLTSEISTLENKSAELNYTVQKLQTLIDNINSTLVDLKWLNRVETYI

[2] = target: T2, HCoV-OC43 trimeric S protein (amino acids 12-1299) with T4 foldon, histidine tag and strep-tag (HCoV-OC43, UniProt P36334 12-1291); experiment: as above
T2 chain: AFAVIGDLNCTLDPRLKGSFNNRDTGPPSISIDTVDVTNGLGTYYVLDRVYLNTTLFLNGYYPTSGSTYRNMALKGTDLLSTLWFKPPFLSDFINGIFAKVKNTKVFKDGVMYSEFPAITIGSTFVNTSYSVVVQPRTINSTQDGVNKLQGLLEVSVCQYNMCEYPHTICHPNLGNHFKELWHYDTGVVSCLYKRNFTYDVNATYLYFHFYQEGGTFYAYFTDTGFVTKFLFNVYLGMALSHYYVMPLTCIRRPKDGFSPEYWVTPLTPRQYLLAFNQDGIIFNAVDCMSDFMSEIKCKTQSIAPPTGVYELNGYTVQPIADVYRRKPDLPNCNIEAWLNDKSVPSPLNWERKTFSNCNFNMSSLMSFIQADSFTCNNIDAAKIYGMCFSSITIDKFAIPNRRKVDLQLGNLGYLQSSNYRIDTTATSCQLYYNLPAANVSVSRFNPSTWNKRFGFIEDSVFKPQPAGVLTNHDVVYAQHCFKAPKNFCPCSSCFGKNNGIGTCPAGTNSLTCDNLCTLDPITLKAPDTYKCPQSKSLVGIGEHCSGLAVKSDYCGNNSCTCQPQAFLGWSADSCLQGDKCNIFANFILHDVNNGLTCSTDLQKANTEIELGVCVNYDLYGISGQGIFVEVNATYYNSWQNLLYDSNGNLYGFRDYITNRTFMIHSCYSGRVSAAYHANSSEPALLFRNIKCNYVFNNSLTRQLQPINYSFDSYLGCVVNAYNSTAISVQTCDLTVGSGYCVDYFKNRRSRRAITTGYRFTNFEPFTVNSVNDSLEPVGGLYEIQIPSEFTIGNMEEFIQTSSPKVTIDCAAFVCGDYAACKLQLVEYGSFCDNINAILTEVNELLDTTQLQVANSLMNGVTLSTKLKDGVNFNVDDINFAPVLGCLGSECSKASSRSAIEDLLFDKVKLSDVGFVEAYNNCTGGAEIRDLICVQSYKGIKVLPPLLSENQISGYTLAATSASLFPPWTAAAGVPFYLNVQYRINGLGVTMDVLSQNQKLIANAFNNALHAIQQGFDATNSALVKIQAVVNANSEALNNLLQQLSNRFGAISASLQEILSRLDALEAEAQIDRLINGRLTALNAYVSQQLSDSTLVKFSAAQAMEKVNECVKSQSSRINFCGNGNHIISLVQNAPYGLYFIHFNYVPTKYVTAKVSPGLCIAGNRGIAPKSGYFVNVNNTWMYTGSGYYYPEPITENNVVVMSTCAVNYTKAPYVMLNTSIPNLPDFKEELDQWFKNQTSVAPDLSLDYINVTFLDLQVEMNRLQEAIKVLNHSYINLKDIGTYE

B1: NT-193 (recombinant human IgG1/kappa antibody) (antibody, V domains shown)
VH: EVQLQQWGAGLLKPSETLSLTCAVYGGSFSGYYWSWIRQPPGKGLEWIGEINHSGSTNYNPSLKSRVTISVDTSKNQFSLKLSSVTAADTAVYYCARGWDLDYYYGMDVWGQGTTVTVSS
VL: DIRMTQSPSAMSASVGDRVTVTCRASQGIGNYLAWFQLKPGKVPKRLIYAASSLQSGVPARFSGGGSGTEFTLTISSLQPEDFATYYCLQHGFLPWTFGQGTKLEIK
[1]
  binding result: no binding (tested: 1000 ng/ml)
[2]
  binding result: no binding (tested: 1000 ng/ml)
